# Results: patent US8398971B2, “Methods, compounds, and compositions for treatment and prophylaxis in the respiratory tract” (NexBio, Inc., priority 2009, dated 2013)
# Values joined by “and” are separate entries in the source; they are usually repeats but may differ in a detail not shown here. Identical values can stand only once. “Also recorded” adds a separate entry of the source. Like-named read-outs stand apart in the source and are kept apart here.
# B1: A. viscosus: bacterial sialidase enzyme from Actinomyces viscosus (SEQ ID NO:12) (protein, listed as Actinomyces viscosus)
# chain: MTSHSPFSRRRLPALLGSLPLAATGLIAAAPPAHAVPTSDGLADVTITQVNAPADGLYSVGDVMTFNITLTNTSGEAHSYAPASTNLSGNVSKCRWRNVPAGTTKTDCTGLATHTVTAEDLKAGGFTPQIAYEVKAVEYAGKALSTPETIKGATSPVKANSLRVESITPSSSQENYKLGDTVSYTVRVRSVSDKTINVAATESSFDDLGRQCHWGGLKPGKGAVYNCKPLTHTITQADVDAGRWTPSITLTATGTDGATLQTLTATGNPINVVGDHPQATPAPAPDASTELPASMSQAQHLAANTATDNYRIPAITTAPNGDLLISYDERPKDNGNGGSDAPNPNHIVQRRSTDGGKTWSAPTYIHQGTETGKKVGYSDPSYVVDHQTGTIFNFHVKSYDQGWGGSRGGTDPENRGIIQAEVSTSTDNGWTWTHRTITADITKDKPWTARFAASGQGIQIQHGPHAGRLVQQYTIRTAGGAVQAVSVYSDDHGKTWQAGTPIGTGMDENKVVELSDGSLMLNSRASDGSGFRKVAHSTDGGQTWSEPVSDKNLPDSVDNAQIIRAFPNAAPDDPRAKVLLLSHSPNPRPWSRDRGTISMSCDDGASWTTSKVFHEPFVGYTTIAVQSDGSIGLLSEDAHNGADYGGIWYRNFTMNWLGEQCGQKPAEPSPAPSPTAAPSAAPTEKPAPSAAPSAEPTQAPAPSSAPEPSAAPEPSSAPAPEPTTAPSTEPTPAPAPSSAPEQTDGPTAAPAPETSSAPAAEPTQAPTVAPSVEPTQAPGAQPSSAPKPGATGRAPSVVNPKATGAATEPGTPSSSASPAPSRNAAPTPKPGMEPDEIDRPSDGTMAQPTGGASAPSAAPTQAAKAGSRLSRTGTNALLILGLAGVAVVGGYLLLRARRSKN
# B2: AR-AvCD: recombinant AR-AvCD sialidase fusion protein made from Construct #2 (FIG. 5, SEQ ID NOs: 18 & 19) (protein)
# chain: MVKRKKKGGKNGKNRRNRKKKNPGDHPQATPAPAPDASTELPASMSQAQHLAANTATDNYRIPAITTAPNGDLLISYDERPKDNGNGGSDAPNPNHIVQRRSTDGGKTWSAPTYIHQGTETGKKVGYSDPSYVVDHQTGTIFNFHVKSYDQGWGGSRGGTDPENRGIIQAEVSTSTDNGWTWTHRTITADITKDKPWTARFAASGQGIQIQHGPHAGRLVQQYTIRTAGGAVQAVSVYSDDHGKTWQAGTPIGTGMDENKVVELSDGSLMLNSRASDGSGFRKVAHSTDGGQTWSEPVSDKNLPDSVDNAQIIRAFPNAAPDDPRAKVLLLSHSPNPRPWSRDRGTISMSCDDGASWTTSKVFHEPFVGYTTIAVQSDGSIGLLSEDAHNGADYGGIWYRNFTMNWLGEQCGQKPAEGADYGGIWYRNFTMNWLGEQCGQKPAE
# B3: DAS181: fusion protein comprising a catalytic domain of a sialidase, and an anchoring domain (SEQ ID NO:21) (protein)
# chain: MGDHPQATPAPAPDASTELPASMSQAQHLAANTATDNYRIPAITTAPNGDLLISYDERPKDNGNGGSDAPNPNHIVQRRSTDGGKTWSAPTYIHQGTETGKKVGYSDPSYVVDHQTGTIFNFHVKSYDQGWGGSRGGTDPENRGIIQAEVSTSTDNGWTWTHRTITADITKDKPWTARFAASGQGIQIQHGPHAGRLVQQYTIRTAGGAVQAVSVYSDDHGKTWQAGTPIGTGMDENKVVELSDGSLMLNSRASDGSGFRKVAHSTDGGQTWSEPVSDKNLPDSVDNAQIIRAFPNAAPDDPRAKVLLLSHSPNPRPWSRDRGTISMSCDDGASWTTSKVFHEPFVGYTTIAVQSDGSIGLLSEDAHNGADYGGIWYRNFTMNWLGEQCGQKPAKRKKKGGKNGKNRRNRKKKNP
# How the values were obtained:
# [1] = pH 5; cited from earlier work
# influenza A (H1N1) virus = assay type: in vivo, ferrets; details: for inflammatory response of infected ferrets: topical administration
# [2] = tested on: guinea pig model of allergic asthma; assay: allergen-induced early asthmatic reaction (PenH) in conscious unrestrained guinea pigs; assay type: in vivo; details: for decrease of early asthmatic reaction (PenH) after OVA aerosol: OVA guinea pigs; for basal PenH: guinea pig, in vivo, 0.3 mg/kg
# [3] = tested on: guinea pig model of allergic asthma; assay: cell count and differentiation in broncho-alveolar lavage fluid of guinea pigs; assay type: in vivo
# [4] = tested on: acute OVA challenge mouse model of asthma; assay type: in vivo, BALB/c mice; details: 0.6 mg/kg intranasal one hour prior to each OVA challenge; day 31
# [5] = tested on: acute OVA challenge mouse model of asthma; assay: blood eosinophil counts in OVA mouse model of asthma; assay type: in vivo, BALB/c mice; details: 0.6 mg/kg intranasal
# [6] = tested on: acute OVA challenge mouse model of asthma; assay: PAS staining for lung mucus in OVA mouse model of asthma; design: species or system BALB/c mice; details: in vivo
# M2 muscarinic receptor = M2 muscarinic receptor (Homo sapiens, UniProt P08172); assay: M2 muscarinic receptor signaling in chem-1 cells (intracellular calcium); assay type: cell-based; details: 0.4, 2 or 10 μM
# Sequence of M2 muscarinic receptor (P08172 whole entry): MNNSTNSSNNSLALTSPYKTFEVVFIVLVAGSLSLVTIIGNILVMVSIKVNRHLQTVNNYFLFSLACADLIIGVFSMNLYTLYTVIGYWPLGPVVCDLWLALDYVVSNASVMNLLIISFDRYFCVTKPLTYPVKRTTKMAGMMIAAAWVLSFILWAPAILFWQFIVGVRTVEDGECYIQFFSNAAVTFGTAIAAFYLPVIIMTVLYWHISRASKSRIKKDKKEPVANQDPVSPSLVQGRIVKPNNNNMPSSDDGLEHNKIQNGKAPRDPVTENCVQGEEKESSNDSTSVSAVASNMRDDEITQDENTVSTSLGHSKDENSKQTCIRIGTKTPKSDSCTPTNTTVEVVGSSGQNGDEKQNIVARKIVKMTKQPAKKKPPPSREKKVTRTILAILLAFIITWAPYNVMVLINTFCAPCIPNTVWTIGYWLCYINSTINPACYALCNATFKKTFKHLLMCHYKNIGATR
# M3 muscarinic receptor = molecular target: T1, M3 muscarinic receptor (Homo sapiens, UniProt P20309); assay: M3 muscarinic receptor signaling in chem-1 cells (intracellular calcium); assay type: cell-based; details: 0.4, 2 or 10 μM
# T1 construct: host or cells: chem-1 cells
# T1 sequence (P20309 whole entry): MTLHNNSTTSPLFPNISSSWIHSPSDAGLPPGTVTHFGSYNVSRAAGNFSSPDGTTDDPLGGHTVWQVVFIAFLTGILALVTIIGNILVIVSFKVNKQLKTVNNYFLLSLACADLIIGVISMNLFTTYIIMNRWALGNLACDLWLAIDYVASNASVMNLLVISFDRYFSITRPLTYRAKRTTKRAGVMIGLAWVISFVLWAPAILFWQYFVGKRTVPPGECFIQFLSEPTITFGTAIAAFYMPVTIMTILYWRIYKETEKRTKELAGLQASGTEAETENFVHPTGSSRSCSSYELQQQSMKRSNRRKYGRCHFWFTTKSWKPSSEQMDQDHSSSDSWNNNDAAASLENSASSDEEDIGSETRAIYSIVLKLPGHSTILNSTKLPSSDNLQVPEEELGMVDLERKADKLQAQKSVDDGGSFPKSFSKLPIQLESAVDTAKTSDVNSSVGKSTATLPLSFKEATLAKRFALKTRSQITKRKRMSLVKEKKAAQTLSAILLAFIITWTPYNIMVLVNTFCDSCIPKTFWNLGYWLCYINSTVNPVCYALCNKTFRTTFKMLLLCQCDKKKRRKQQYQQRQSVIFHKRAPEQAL
molecule,measurement,setting,value
B1,stability in buffer,[1],stable
B2,reduction of mean AUC of nasal protein concentrations vs vehicle-treated infected animals,influenza A (H1N1) virus; 8 infected treated ferrets,approximately 40%
same,mean AUC of nasal protein concentrations,"influenza A (H1N1) virus; 8 infected treated ferrets that shed virus, vehicle 4.48",2.68 arbitrary units
same,reduction of AUC value for cell counts vs vehicle-treated infected animals,influenza A (H1N1) virus; in vivo,approximately 3 fold
same,AUC value for inflammatory cell counts in nasal washes,"influenza A (H1N1) virus; infected treated ferrets, vehicle 1965",674 arbitrary units
same,inflammatory response of infected ferrets,influenza A (H1N1) virus,reduces the inflammatory responses
same,inflammatory response of infected ferrets,influenza A (H1N1) virus; listed as fusion protein,the inflammatory response was reduced
same,number of inflammatory cells in the nasal washes,influenza A (H1N1) virus; vs vehicle-treated infected animals,significant reduction in the number of inflammatory cells
B3,decrease of early asthmatic reaction (PenH) after OVA aerosol,"[2]; treated on day 15, vs sodium sulfate",~30%
same,decrease of early asthmatic reaction (PenH) after OVA aerosol,[2]; treated on day 20,not on day 20
same,basal PenH,[2],0.25±0.01 and 0.28±0.01
same,basal PenH,[2]; listed as Fludase®,0.27±0.02 and 0.31±0.03
same,number of eosinophils in BAL fluid,"[3]; guinea pig, in vivo",restore the number of eosinophils up to historical control levels
same,number of lymphocytes in BAL fluid,"[3]; guinea pig, in vivo",decreased
same,"number of all inflammatory cells (macrophages, lymphocytes, neutrophils and eosinophils)",[3]; inflammation caused by SOD or OVA,significantly decreased
same,neutrophil influx into the lungs (BAL),[3]; saline and OVA groups,completely prevented this influx
same,total number of cells in BAL fluid,[3]; saline and OVA guinea pigs,decreases the total number of cells
same,total number of macrophages in BAL fluid,"[3]; treatment on day 15 and 20, saline and OVA guinea pigs",strongly decreased
same,Penh at 48 mg/ml Mch vs OVA challenged mice,[4],reduction in Penh
same,blood eosinophils vs OVA challenged mice,[5],significantly reduced blood eosinophils
same,PAS staining of airway epithelium (lung mucus) vs OVA challenged mice,[6],statistically significant reduction in PAS staining; also recorded: significantly reduced PAS staining
same,effect on potency of agonist-mediated M2 receptor signaling,M2 muscarinic receptor,increased the potency of agonist-mediated M2 receptor signaling
same,effect on potency of agonist-mediated M3 receptor signaling,M3 muscarinic receptor,decreased the potency of agonist-mediated M3 receptor signaling
